According to PMC5507911, “Beyond the Debye length in high ionic strength solution: direct protein detection with field-effect transistors (FETs) in human serum”:

T1: C-reactive protein (CRP) (UniProt P02741 19-224)
T1 sequence: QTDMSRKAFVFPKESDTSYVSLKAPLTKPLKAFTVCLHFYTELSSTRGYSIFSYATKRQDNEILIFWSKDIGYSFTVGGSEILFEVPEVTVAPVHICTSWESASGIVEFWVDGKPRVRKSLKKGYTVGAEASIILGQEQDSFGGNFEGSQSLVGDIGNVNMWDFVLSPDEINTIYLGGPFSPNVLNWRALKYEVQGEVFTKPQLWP

T2: C-reactive protein (CRP) in clinical serum (human, UniProt P02741 19-224)
T2 sequence: T1 sequence

B1: CRP aptamer (ssDNA)
DNA: GGCAGGAAGACAAACACGATGGGGGGGTATGATTTGATGTGGTTGTTGCATGATCGTGGTCTGTGGTGCTGT
modifications: 5' thiol (SH)
B2: HIV-1 RT aptamer (ssDNA)
DNA: TTTTTTTATACGTGAGCGTGCTGTCCCCTAAAGGTGATACGTCAGGGG
modifications: 5' thiol (SH)

Tests used:
[1] = target: T1, C-reactive protein (CRP); assay: EDL FET (AlGaN/GaN HEMT) biosensor; 1X PBS with 1% BSA; 1 fM-100 nM CRP; current gain increases with concentration; 1X PBS with 1% BSA (or undiluted human serum for CRP), 5 min incubation for HIV-1 RT, no washing; Vd 2 V, Vg pulse 0 to 0.5 V (HIV-1 RT); pH and temperature not stated; details: chain copies: 5
[2] = target: T2, C-reactive protein (CRP) in clinical …; assay: EDL FET (AlGaN/GaN HEMT) biosensor; undiluted human sera; 0.34-23.2 mg/L CRP; 1X PBS with 1% BSA (or undiluted human serum for CRP), 5 min incubation for HIV-1 RT, no washing; Vd 2 V, Vg pulse 0 to 0.5 V (HIV-1 RT); pH and temperature not stated; details: protein: native; chain copies: 5
[3] = target: HIV-1 reverse transcriptase (HIV-1 RT) (HIV-1, UniProt P04585;P04585 588-1147;588-1027); assay: EDL FET (AlGaN/GaN HEMT) biosensor; 1X PBS with 1% BSA; 1 fM-10 pM RT; current gain decreases with concentration; 1X PBS with 1% BSA (or undiluted human serum for CRP), 5 min incubation for HIV-1 RT, no washing; Vd 2 V, Vg pulse 0 to 0.5 V (HIV-1 RT); pH and temperature not stated; details: copies: 1;1

Binder	binding result [1]	binding result [2]	binding result [3]
B1	binds	binds	–
B2	–	–	binds
